Reference: publication PMC7337902

Biological target: HRP2 (hepatoma-derived growth factor-related protein 2) IBD (UniProt Q7Z4V5)
Test: biotin-peptide streptavidin pull-down, GST blot
Details: reference: unphosphorylated IBM peptide; sites S323

UniProt Q7Z4V5, sequence (Q7Z4V5 whole entry, looked up): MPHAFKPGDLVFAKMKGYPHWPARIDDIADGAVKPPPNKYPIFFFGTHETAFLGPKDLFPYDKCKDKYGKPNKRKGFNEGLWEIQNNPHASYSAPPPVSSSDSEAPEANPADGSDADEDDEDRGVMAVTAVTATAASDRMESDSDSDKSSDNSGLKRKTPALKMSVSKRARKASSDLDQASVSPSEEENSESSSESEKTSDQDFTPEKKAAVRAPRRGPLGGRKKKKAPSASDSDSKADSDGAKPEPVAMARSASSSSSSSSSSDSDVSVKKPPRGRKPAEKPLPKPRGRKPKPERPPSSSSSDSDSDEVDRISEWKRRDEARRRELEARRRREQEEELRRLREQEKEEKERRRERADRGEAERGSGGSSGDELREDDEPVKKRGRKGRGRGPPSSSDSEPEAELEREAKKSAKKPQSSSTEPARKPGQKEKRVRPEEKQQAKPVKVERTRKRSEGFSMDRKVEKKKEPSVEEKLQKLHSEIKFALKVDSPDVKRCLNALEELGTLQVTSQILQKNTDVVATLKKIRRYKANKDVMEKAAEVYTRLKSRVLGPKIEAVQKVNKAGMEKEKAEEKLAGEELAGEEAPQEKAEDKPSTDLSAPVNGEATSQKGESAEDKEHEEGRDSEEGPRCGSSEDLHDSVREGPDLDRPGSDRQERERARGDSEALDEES

Substance: DPF3a (BAF45c) IBM peptide (from UniProt Q92784-2) pS323 IBM peptide
- binding against the reference: stronger
